± gives the uncertainty stated by the source.
Assay: protein stability index of a GFP-peptide fusion (yeast GPS) (PSI 1-4); higher = more stable; sorted into four equal gates, so the index is relative within each strain
Conditions: san1∆
Method in brief: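 For each peptide, the protein stability index sums the read frequency in every gate after multiplying it by the gate number. Read frequencies came from plasmids that were PCR-amplified from each gate and Illumina-sequenced, with reads assigned to strains by barcodes. The gates were four equal bins of GFP/Cherry fluorescence ratio applied to mid-log yeast in leucine-free medium carrying a pooled library of tiled 17-residue yeast protein peptides fused downstream of GFP on a Cherry-expressing plasmid.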

First: RTKFVRSLVREIAGLSP [RPL36A]
Second: RTLNIQPEVAVKAAINF [YIL149C/MLP2]
The protein stability index of the first is higher: 2.85 ± 0.086 for the first, 1.84 ± 0.071 for the second.

RTQFGGGKSVGFGLVYN [RPS24A] and RVAKGSGTSVFEVEMIL [SRP54] are within error of each other in protein stability index: 3.27 ± 0.047 for the first, 3.39 ± 0.076 for the second.

Going from RVIIQELRFPSPTPIQR [PRP28] to RVVMMKYDRKVPSPTGE [RPO21], the protein stability index rises from 2.41 ± 0.14 to 2.69 ± 0.079.

Going from RVVVPQALRVLRLKPGR [RPL16B] to RWDKEEYQSLMSLKDKL [SMC1], the protein stability index rises from 1.36 ± 0.12 to 3.2 ± 0.11.

Compared with RWYQLIATGCKDGRIRI [YGL100W/SEH1], RYFFYLSKINAIQLDYS [RPN3] is lower in protein stability index: 2.18 ± 0.078 for the first, 1.34 ± 0.15 for the second.

Compared with SAEYLQMSLEANVVDIT [YJR042W/NUP85], SAGDDGKVRLWKATYSN [YGL100W/SEH1] is higher in protein stability index: 2.05 ± 0.14 for the first, 2.74 ± 0.06 for the second.

Compared with SAGKGISSSAIPYSRNA [RPS13], SAGQPNLLLSASRDKTL [ASC1] is higher in protein stability index: 2.36 ± 0.048 for the first, 2.7 ± 0.041 for the second.

Compared with SAIVNEDGLLEGLDELP [SOH1], SAKAELEKLVDHHPEGL [PRE10] is lower in protein stability index: 2.78 ± 0.15 for the first, 2.55 ± 0.068 for the second.

First: SAKEIAKASGCDDESGD [MCD1]
Second: SAKPSQIPTVSSPLGFE [SIR4]
The protein stability index of the first is lower: 2.62 ± 0.12 for the first, 2.85 ± 0.068 for the second.

Going from SARGSYLRVSFKNTRET [RPL17A] to SASDALKGRVVEVCLAD [RPS1A], the protein stability index falls from 2.77 ± 0.051 to 2.35 ± 0.081.

First: SASHFEQYTKKINSWDQ [YJL041W/NSP1]
Second: SASKHEYSDNFPVSLSQ [SIR4]
The protein stability index of the first is lower: 2.69 ± 0.083 for the first, 3.06 ± 0.04 for the second.

SASSKEFNFTNLQAKPL [YAR002W/NUP60] and SAVKRLLHVAVSDSNDD [RPN2] are within error of each other in protein stability index: 2.46 ± 0.06 for the first, 2.56 ± 0.083 for the second.

First: SCKDSQLKWAQNTIDDT [YIL149C/MLP2]
Second: SCTFWSDKESNAYGFIE [YJL039C/NUP192]
The protein stability index of the first is lower: 2.65 ± 0.046 for the first, 2.83 ± 0.07 for the second.

Compared with SDAQSNLGSNVRNSFPL [REC8], SDESIERLMTWKFKSLI [RRI2] is lower in protein stability index: 2.87 ± 0.082 for the first, 2.11 ± 0.066 for the second.

SDEVSRGIPRLSEDELR [SMC4] and SDIIILKGEIEDYPMSS [SIR4] are within error of each other in protein stability index: 3.39 ± 0.14 for the first, 3.12 ± 0.24 for the second.

First: SDIISMLQISDDNEMTR [RRI2]
Second: SDIVFIHQNAGRLLRAM [BRR2]
The protein stability index of the first is higher: 3.2 ± 0.045 for the first, 1.9 ± 0.071 for the second.

Going from SDLGTVVFDSNEAPPKT [YMR153W/NUP53] to SDNVSFEIQGVPPMKLA [YMR129W/POM152], the protein stability index rises from 2.6 ± 0.076 to 3.05 ± 0.062.

Compared with SDSEDSDAKEQHQSLSR [ESC2], SDTSKPAFTFGAQKDNE [YJL041W/NSP1] is higher in protein stability index: 3.04 ± 0.084 for the first, 3.36 ± 0.074 for the second.

Going from SEENIGSGLLKLSEIIL [SWI1] to SEHDKKRLSAALSKFLT [YML103C/NUP188], the protein stability index rises from 2.92 ± 0.048 to 3.06 ± 0.068.

Compared with SEIARTYLLKNDLVKAR [RPN9], SEIKQQINKAQILENYN [YJL039C/NUP192] is lower in protein stability index: 3.09 ± 0.12 for the first, 2.73 ± 0.091 for the second.

Going from SEKLITKYFEPTSTENN [ECM29] to SELDSNDFFIIYYTPAF [YJL039C/NUP192], the protein stability index falls from 3.04 ± 0.035 to 1.63 ± 0.075.

Compared with SELNEGNLSKREIQIDA [SRB8], SENRFPGWDFETEEIDP [RPL5] is lower in protein stability index: 2.98 ± 0.069 for the first, 2.48 ± 0.078 for the second.

SENVFEGLTYKYPARRI [SSN3] and SEPLTLKVLSEHLDCMN [PCI8] are within error of each other in protein stability index: 2.62 ± 0.17 for the first, 2.73 ± 0.055 for the second.

First: SETDLNDIPLGSGQPDN [SRB8]
Second: SFAIYSSTIDAPAFHTS [SRB8]
The protein stability index of the first is higher: 3.06 ± 0.07 for the first, 2.03 ± 0.065 for the second.

First: SFDSIDHSWFLLIGCKL [CSI1]
Second: SFGTANTNGTNASANST [YOR098C/NUP1]
The protein stability index of the first is lower: 1.72 ± 0.2 for the first, 2.75 ± 0.15 for the second.

SFHVQKKTCSSCGYPSA [RPL37B] and SFIISSLDTLELESITE [NUT1] are within error of each other in protein stability index: 1.86 ± 0.12 for the first, 1.78 ± 0.083 for the second.

Compared with SFLKVDPDLGLDLMFDE [YJL039C/NUP192], SFSVCKIRCFRYISTLT [IRR1] is lower in protein stability index: 3.04 ± 0.087 for the first, 1.49 ± 0.11 for the second.

Going from SGCDSTKPSLRKASCIW [ECM29] to SGDNHTQQSHEQQPEQP [RPT4], the protein stability index rises from 2.63 ± 0.076 to 3.03 ± 0.06.

Going from SGEDVIIGKTTPISPDE [RPB2] to SGGSVNLYHVTEDGWIY [PRE2], the protein stability index falls from 3.49 ± 0.083 to 3 ± 0.087.

SGITGECLQAYIFFGPI [RET1] and SGLPTCDYYNTFLLNNK [RPN2] are within error of each other in protein stability index: 2.64 ± 0.076 for the first, 2.68 ± 0.062 for the second.

Compared with SGNSANNMNVNMNLNPQ [GAL11], SGQKAGLIAARRTGLLR [RPL2A] is higher in protein stability index: 2.73 ± 0.033 for the first, 3.15 ± 0.067 for the second.

First: SGRTVISPDPNLSIDEV [RPO31]
Second: SGTFYRYNAKAIGSGSE [PUP2]
The protein stability index of the first is lower: 2.03 ± 0.099 for the first, 3.37 ± 0.06 for the second.

SGTKSEVLTYVNYLISN [YJL039C/NUP192] and SHERFFLSQGLHVVITL [CSN12] are within error of each other in protein stability index: 2.54 ± 0.041 for the first, 2.74 ± 0.18 for the second.

SHINTNVGDNNSTASSS [ARP7] and SHLFNEYSYVDSNMDSI [RPN4] are within error of each other in protein stability index: 2.9 ± 0.062 for the first, 2.93 ± 0.1 for the second.

First: SHNVDELLEHIETIGHL [RPN5]
Second: SIAAERYDYSDEVGRRS [YCG1]
The protein stability index of the first is lower: 2.14 ± 0.11 for the first, 2.65 ± 0.14 for the second.

First: SIATKRFDAQTGSDREV [RPT3]
Second: SIISSKTSCVVEKRIGK [RGR1]
The protein stability index of the first is higher: 3.17 ± 0.077 for the first, 2.59 ± 0.093 for the second.

First: SIKEHSTTMDGANDLGF [MED1]
Second: SIVLLLLSQFGIKVLPE [YML103C/NUP188]
The protein stability index of the first is higher: 2.15 ± 0.28 for the first, 1.18 ± 0.13 for the second.

First: SIVTVVSSAKFSGKYLK [RPL22B]
Second: SKALYPDYYMIIKYPVA [SNF2]
The protein stability index of the first is higher: 2.73 ± 0.085 for the first, 2.02 ± 0.054 for the second.

Compared with SKEVRGSKIRVMWGKVT [RPL33A], SKFSKQQAKGAFQKVAA [RPL24A] is higher in protein stability index: 2.4 ± 0.092 for the first, 2.9 ± 0.05 for the second.

SKINSTELLDYATKLSK [MED4] and SKLIPEVINKEIENATK [RPS1A] are within error of each other in protein stability index: 2.49 ± 0.072 for the first, 2.78 ± 0.23 for the second.

First: SKLKKETASFIPTKESL [YIL149C/MLP2]
Second: SKLLREHGYQSRGFEVM [RPB2]
The protein stability index of the first is lower: 2.44 ± 0.15 for the first, 2.9 ± 0.14 for the second.

SKLPDPERWLPLRDRST [SRP72] and SKMYNTDKKAFLGALKY [PRP8] are within error of each other in protein stability index: 2.55 ± 0.077 for the first, 2.47 ± 0.1 for the second.

First: SKNSKLSIICVGGHNVT [SIR3]
Second: SKQNGIEQSITKNIPIT [SSN8]
The protein stability index of the first is lower: 1.39 ± 0.081 for the first, 2.66 ± 0.079 for the second.

SKQVQVSQQPLSRGYTC [ECM29] and SKSMKFSRRFDCRDVYC [CSN9] are within error of each other in protein stability index: 2.44 ± 0.061 for the first, 2.58 ± 0.088 for the second.

Going from SKTVKVLKTLIEKFEQV [RPN6] to SKTVVTLSEPVQGELKP [FAS1], the protein stability index falls from 3.07 ± 0.11 to 2.5 ± 0.053.

First: SKVSIEQRKEAAEFVLA [RPN7]
Second: SKWFNLEKIHSIEVQSL [SWI3]
The protein stability index of the first is higher: 2.45 ± 0.09 for the first, 1.59 ± 0.14 for the second.

Going from SLAGFHKVQTKLTRELE [RPS7A] to SLAILGMNLLSNLSQNV [SWI1], the protein stability index rises from 1.57 ± 0.13 to 2.69 ± 0.052.

Compared with SLAQNDCNSALDQLLVL [RPN5], SLAWSADGQTLFAGYTD [ASC1] is higher in protein stability index: 2.15 ± 0.053 for the first, 2.7 ± 0.075 for the second.

Compared with SLDIRHDFIKGLIMLNL [NUT1], SLEENAMSTVTLGVVGK [SKI6] is higher in protein stability index: 1.31 ± 0.13 for the first, 3.04 ± 0.099 for the second.

For SLFSKIKTFFTQKDSAR [YAR002W/NUP60], the protein stability index was 2.42 ± 0.09.

Same assay, conditions: ubr1∆

First: RTKFVRSLVREIAGLSP [RPL36A]
Second: RTLNIQPEVAVKAAINF [YIL149C/MLP2]
The protein stability index of the first is higher: 2.92 ± 0.09 for the first, 2.21 ± 0.046 for the second.

From the supplement of paper PMC9732359
